Experimental data reported in the MegaScale stability set (Tsuboyama et al. 2023).

B1: 1ZHC (parent)
chain: HEFRDEISVLKANNPHFDKIFEKHNQLDDDIKTAEQQNASDAEVSHMKKQKLKLKDEIHSMIIEYREK

Variants of: B1
Assay: folding stability dG (cDNA display proteolysis); higher = more stable
Settings: PBS, room temperature

Folding stability dG [kcal/mol] of substitutions, site by site:
A34: V -0.863, H -0.482, L 1.21, R 0.663, Y 0.389, W 0.215, C 0.429, F 0.526, M 0.859, Q -0.306, K 0.579, I -0.296
A39: K 1.1, I 0.873, P 0.131, F 1.07, C 0.897, T 0.09, S 0.359, M 0.936, H 0.973, R 1.33, N 0.078, V 0.986, D 0.034, G 0.787, L 1.36, Q 0.259, E 0.246
Q36: I 0.263, L 1.02, E 0.904, K 0.963, R 1.25, F 0.822, G 0.883, V 0.511, H -0.003, A 1.01, D 0.576, N 0.652, S 1.17, C 0.694, W 0.281, Y 0.632, M 1.31, T 0.782
Q37: M 0.926, D 0.411, K 0.764, I 0.631, H 1.05, V 0.447, W 0.426, C 0.94, T 0.882, Y 0.718, E 0.422, R 1.51, G 0.943, F 0.569, L 0.867, S 1, N 1.38, A 1.07
N38: K 0.548, E -0.059, T 0.312, A 0.467, I -0.331, D 0.358, H 0.624, L 0.276, M 0.449, V -0.172, F 0.925, R 0.634, Y 0.303, Q -0.49, G 1.55, C 0.923, S 0.358, P -0.007, W -0.188
I31: D -0.93, C -0.874, V -0.196, L -0.093, N -0.499, H -0.743
E35: G -0.433, W 0.403, C 0.531, A 0.281, S 0.162, R 0.348, N 0.058, K 0.972, H -0.572, Y 0.895, L 1.67, T 0.201, I 1.68, M 1.49, F 0.495, V 0.864, Q 1.17
D30: V -0.277, R 1.07, E 0.784, F 0.817, Y 0.857, W 1.09, N 0.359, L 1.27, T 0.396, Q 1.25, I 0.712, S 0.524, M 1.66, G -0.099, C 1.21, K 1, A 1.4
D29: N 1.49, Q 1.5, Y 1.25, V 1.24, T 0.539, R 1.67, S 1.2, W 1.26
T33: N 1.07, F 1, W 0.943, C 0.988, M 1.26, R 1.55, A 1.14, Q 1.02, Y 0.829, G -0.016, E 0.363, S 0.866, K 1.43, L 1.14, V 1.3, I 0.854, H 0.96, D 0.706
K32: S 0.171, Q 0.87, C 0.133, A 0.452, I 0.135, M 0.333, L 0.566, W 0.34, Y 0.157, R 1.18, H 0.348, D -0.682, N 0.323, V 0.251, F 0.278, T 0.187, E 0.008
